# Source: US6887705B1, “Tyrosine phosphorylated cleavage furrow-associated proteins (PSTPIPs)” (Genentech, Inc., priority 1997, dated 2005)
# T1: PTP HSCF (Mus musculus, UniProt Q61152)
# T1 construct: the PST (and C-terminal homolog) of PTP HSCF (amino acids 304-453); made in house; host or cells: E. coli DH5-alpha
# T1 sequence (Q61152 304-453): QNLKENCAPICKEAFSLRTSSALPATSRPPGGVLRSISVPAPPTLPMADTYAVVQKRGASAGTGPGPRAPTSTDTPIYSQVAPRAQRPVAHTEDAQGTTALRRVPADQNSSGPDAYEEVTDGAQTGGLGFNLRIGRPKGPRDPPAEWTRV
# B1: delta 50: PST PIP missing the N-terminal 50 amino acids (protein)
# chain: ERYGKELVQIARKAGGQTEMNSLRTSFDSLKQQTENVGSAHIQLALALREELRSLEEFRERQKEQRKKYEAIMDRVQKSKLSLYKKTMESKKAYDQKCRDADDAEQAFERVSANGHQKQVEKSQNKAKQCKESATEAERVYRQNIEQLERARTEWEQEHRTTCEAFQLQEFDRLTILRNALWVHCNQLSMQCVKDDELYEEVRLTLEGCDVEGDINGFIQSKSTGREPPAPVPYQNYYDREVTPLIGSPSIQPSCGVIKRFSGLLHGSPKTTPSAPAASTETLTPTPERNELVYASIEVQATQGNLNSSAQDYRALYDYTAQNSDELDISAGDILAVILEGEDGWWTVERNGQRGFVPGSYLEKLDYKDDDDK
# B2: delta 75: PST PIP missing the N-terminal 75 amino acids (protein)
# chain: SFDSLKQQTENVGSAHIQLALALREELRSLEEFRERQKEQRKKYEAIMDRVQKSKLSLYKKTMESKKAYDQKCRDADDAEQAFERVSANGHQKQVEKSQNKAKQCKESATEAERVYRQNIEQLERARTEWEQEHRTTCEAFQLQEFDRLTILRNALWVHCNQLSMQCVKDDELYEEVRLTLEGCDVEGDINGFIQSKSTGREPPAPVPYQNYYDREVTPLIGSPSIQPSCGVIKRFSGLLHGSPKTTPSAPAASTETLTPTPERNELVYASIEVQATQGNLNSSAQDYRALYDYTAQNSDELDISAGDILAVILEGEDGWWTVERNGQRGFVPGSYLEKLDYKDDDDK
# B3: D197-A: dominant negative PTP HSCF, active site aspartate mutated to alanine (protein, UniProt Q99952 1-460, looked up, variant D197A)
# Tyrosine-protein phosphatase …: MSRSLDSARSFLERLEARGGREGAVLAGEFSDIQACSAAWKADGVCSTVAGSRPENVRKNRYKDVLPYDQTRVILSLLQEEGHSDYINGNFIRGVDGSLAYIATQGPLPHTLLDFWRLVWEFGVKVILMACREIENGRKRCERYWAQEQEPLQTGLFCITLIKEKWLNEDIMLRTLKVTFQKESRSVYQLQYMSWPARGVPSSPDHMLAMVEEARRLQGSGPEPLCVHCSAGCGRTGVLCTVDYVRQLLLTQMIPPDFSLFDVVLKMRKQRPAAVQTEEQYRFLYHTVAQMFCSTLQNASPHYQNIKENCAPLYDDALFLRTPQALLAIPRPPGGVLRSISVPGSPGHAMADTYAVVQKRGAPAGAGSGTQTGTGTGTGARSAEEAPLYSKVTPRAQRPGAHAEDARGTLPGRVPADQSPAGSGAYEDVAGGAQTGGLGFNLRIGRPKGPRDPPAEWTRV
# B4: wild type PTP HSCF: PEST-type protein tyrosine phosphatase PTP HSCF, wild type (protein)
# chain: MSRHTDLVRSFLEQLEARDYREGAILAREFSDIKARSVAWKSEGVCSTKAGSRLGNTNKNRYKDVVAYDETRVILSLLQEEGHGDYINANFIRGIDGSQAYIATQGPLPHTLLDFWRLVWEFGVKVILMACQETENGRRKCERYWAREQEPLKAGPFCITLTKETTLNADITLRTLQVTFQKEFRSVHQLQYMSWPDHGVPSSSDHILTMVEEARCLQGLGPGPLCVHCSAGCGRTGVLCAVDYVRQLLLTQTIPPNFSLFQVVLEMRKQRPAAVQTEEQYRFLYHTVAQLFSRTLQDTSPHYQNLKENCAPICKEAFSLRTSSALPATSRPPGGVLRSISVPAPPTLPMADTYAVVQKRGASAGTGPGPRAPTSTDTPIYSQVAPRAQRPVAHTEDAQGTTALRRVPADQNSSGPDAYEEVTDGAQTGGLGFNLRIGRPKGPRDPPAEWTRV
# modifications: left off: small tags and cut ends
# B5: delta 25: PST PIP missing the N-terminal 25 amino acids (protein)
# chain: LQRLLDGRKMCKDVEELLRQRAQAEERYGKELVQIARKAGGQTEMNSLRTSFDSLKQQTENVGSAHIQLALALREELRSLEEFRERQKEQRKKYEAIMDRVQKSKLSLYKKTMESKKAYDQKCRDADDAEQAFERVSANGHQKQVEKSQNKAKQCKESATEAERVYRQNIEQLERARTEWEQEHRTTCEAFQLQEFDRLTILRNALWVHCNQLSMQCVKDDELYEEVRLTLEGCDVEGDINGFIQSKSTGREPPAPVPYQNYYDREVTPLIGSPSIQPSCGVIKRFSGLLHGSPKTTPSAPAASTETLTPTPERNELVYASIEVQATQGNLNSSAQDYRALYDYTAQNSDELDISAGDILAVILEGEDGWWTVERNGQRGFVPGSYLEKLDYKDDDDK
# What was measured:
# CHO cells = test: Confocal microscopy of PST PIP forms expressed in CHO cells; type: cell-based, Chinese hamster; conditions: transfected CHO cells
# Protocol: Confocal microscopy was performed as previously described (Spencer et al, (1997), supra). Briefly, CHO cells in chamber slides were transfected using Lipofectamine and the indicated plasmids. 48 hours later, cells were fixed in formaldehyde and stained with an anti-FLAG epitope specific antibody (Kodak) and Fluorescein-Phalloidin (Molecular Probes). Anti-Flag stained cells were washed and stained with Cy3-conjugated sheep anti-mouse IgG. Stained cells were observed using Molecular Dynamics Confocal Microscope™ (2001) and analyzed with ImageSpace™ software (Molecular Dynamics).
# [1] = tested on: PSTPIP tyrosine phosphorylation; test: Tyrosine phosphorylation of PSTPIP in COS cells co-transfected with V-src; type: cell-based; conditions: COS cells expressing PSTPIP and V-src
# Protocol: Baf3 cells were lysed in 1% Triton, 50 mM HEPES. 10% glycerol and 5 mM EDTA containing 1 μg/ml aprotinin, PMSF, leupeptin and pepstatin were 1 mM Sodium Vanadate and 10 mM Iodoacetic acid. Cells were treated with 0.1 mM Pervanadate for 4 hours before lysis. Immunoprecipitations were performed in the vanadate-containing lysis buffer using 1 μg/ml anti-PSTPIP polyclonal antibody and 400 μg of lysate protein at 4° C. overnight. Western blots were performed using 1 μg/ml affinity purified anti-PSTPIP or 1:5000 dilution of commercial 4G10 anti-phosphotyrosine monoclonal (Upstate Biotech). Signal was detected by HRPO-ECL reagents (Pierce). The C221-S mutant was as previously described (Cheng et al., (1996) supra). The PTP HSCF D197-A mutant was generated using PCR. Mutagenesis primer D197A.F ([…]) (SEQ ID NO:24), corresponding to nucleotide 591, and primer D197A.R ([…]) (SEQ ID NO:25) which corresponds to the stop codon, were used in PCR to generate a fragment that could be cut with Mscl and XbaI. pRK.HA.38 WT, a plasmid which encoded the wild type enzyme under the control of the cytomegalovirus promoter (Cheng et al., (1996) supra), was digested with Clal and Mscl and the resulting 600 bp fragment was ligated with the Mscl-Xbal PCR fragment into the Clal and Xbal sites of the pRK.tkneo. A plasmid encoding the V-src oncogene under the control of the SV40 early promoter was the kind gift of Dr. Art Levinson (CEO-Genetech, Inc.). NIH 3T3 cells and the COS-7 cells were cultured in high glucose DMEM supplemented with 10% FBS, 2 mM L-Glutamine, 10 mM HEPES pH 7.2 and pen-strep.
# COS-7 cells were transfected by electroporation. Briefly, 1.5×10^6 COS-7 cells were mixed with 24 μg total DNA in PBS and electroporated at 960 μF, […] (Bio-Rad™ Gene Pulsar™). Following electroporation, cells were seeded in 10 cm dishes and incubated for 3 days. 10-cm dishes of transfected COS cells were washed twice with ice-cold PBS, and lysed in 1 ml of M-RIPA (50 mM Tris 7.4, 1% NP40, 0.25% DOC, 150 mM NaCl, 1 mM sodium ortho-vanadate, 1 mM NaF plus Complete™ Protease Inhibitors (Boehringer Mannheim)). Lysates were incubated for 15 minutes with 100 μl UltraLink Immobilized Protein A/G™ (Pierce) at 4° C., followed by centrifugation for 5 minutes. Supernatants were collected and stored at −70° C. or directly immunoprecipitated. 5 μg of M2 or 12CA5 was added to 500 μl of lysate and incubated overnight at 4° C. Ultralink Protein A/G™ was added and incubation continued for 2 hours at 4° C. The immune complexes were washed 3 times with M-RIPA. The proteins were subjected to SDS-PAGE and transferred to nitrocellulose in 1X Transfer Buffer™ (Novex). Immunoblots were blocked overnight at 4° C. in 3% milk/PBS. To detect Flag-tagged PIP, blots were incubated with 10 μg/ml Bio-M2 (Biotinylated anti-FLAG monoclonal Ab, KODAK) followed by incubation in 10 μg/ml streptavidin-HRP (UBI). To detect HA-tagged PTPhscf, blots were incubated in anti-(HA)-peroxidase (Boehringer Mannheim) as per manufacturer's instructions. To detect phosphotyrosine, blots were incubated in HRP-conjugated 4G10 (anti-phosphotyrosine monoclonal, UBI) as per manufacture's instructions.
# COS cells were transfected with a constant amount of either the wild type of W232A mutant of PST PIP and cotransfected with increasing amounts of a plasmid encoding the v-Src tyrosine kinase (Spencer et al, (1997), supra). Plasmid concentrations were equalized with an empty vector containing the CMV promoter. After 48 hours, lysates were prepare and immunoprecipitated with anti-FLAG monoclonal antibody. Precipitates were run on SDS polyacrylamide gels, blotted, and probed with either anti-FLAG antibody or anti-phosphotyrosine antibody as previously described (Spencer et al, (1997), supra). Bound antibodies were visualized using enhanced chemiluminescent reagents.
# PTP HSCF = molecular target: T1, PTP HSCF; test: In vitro GST pull-down binding of PST PIP forms to PTP HSCF; conditions: in vitro
# Protocol: The binding was carried out according to the method of Wong and Johnson (Wong et al., J. Biol. Chem. 271(35):20981-20984 (1996)). Briefly, 1 μg of plasmid with either the PSTPIP protein or PTP HSCF under the control of the Sp6 promoter was in vitro transcribed/translated using the Promega™ TnT Rabbit Reticulocyte™ system. Samples were diluted in 50 mM HEPES, pH 7.2, 1% triton X 100, 10% glycerol, 100 mM NaCl, 5 mM EDTA and 2 μg/ml each of leupeptin, pepstatin, aprotinin, and PMSF. […] This was reacted for 1 hour at 4° C. and then the resin washed 6 times in HEPES/Triton binding buffer before SDS gel electrophoresis. The peptides were synthesized on an automated Milligen 9050 Peptide Synthesizer using standard solid phase chemistry with FMOC protected amino acids on a p-alkoxybenzyl alcohol resin. Dried peptides were re-suspended in the HEPES/Triton Binding buffer at a concentration of 10 mg/ml. Peptide inhibition was performed by adding the peptide first to the in vitro translation product and then the GST-fusion followed by the GSH-Sepharose. The binding/washing steps were as previously described. The peptides synthesized and the PTPs they were derived from were: • PXXP-HSCF: 432[…]451 (PTP HSCF) (SEQ ID NO:20), • PXXP-PEP: 782GFGNRFSKPKGPRNPPSAW800 (PTP PEP) (SEQ ID NO:21), • PXXP-PEST: 761[…]780 (PTP PEST) SEQ ID NO:22), • PXXP-CONTROL: 334[…]353 (PTP HSCF) (SEQ ID NO:23).
# In vitro binding analyses between various PTP HSCF and PST PIP constructs were performed as previously described (Spencer et al, (1997), supra). Briefly, plasmids were transcribed and translated in vitro using the TnT Rabbit Reticulocyte Lysate System (Promega). Samples were diluted in 50 mM HEPES, pH 7.2, 1% triton X-100, 10% glycerol, 100 mM NaCl, and 2 μg/ml each of leupeptin, pepstatin, aprotinin and PMSF (lysis buffer). Samples were than reacted with GST fusion proteins at various concentrations, and the bound proteins were centrifuged using glutathione-sepharose beads and analyzed on SDS polyacrylamide gels. C-terminally-derived peptide inhibition studies were performed by incubating the GST fusion protein binding reactions in the presence of 10 μg/ml of the indicated peptides. Peptides were produced by FMOC-protected amino acids as previously described (Spencer et al, (1997), supra). In vivo interactions between various forms of PTP HSCF and PST PIP were also performed as previously described (Spencer et al, (1997), supra). Briefly, COS cells were transfected with various constructs, and after 48 hours, lysates were prepared and immunoprecipitated with antibodies to either the FLAG epitope contained at the C-terminus of PST PIP or an HA epitope contained at the N-terminus of PTP HSCF. The resultant blots were probed with anti-FLAG to detect PST PIP, anti-HA to detect PTP HSCF or anti-phosphotyrosine to detect levels of this modified amino acid in each protein.
molecule,measurement,setting,value
B1,cellular localization of PST PIP forms (assay for correct folding),CHO cells,formed large aggregates within the cytoplasm
B2,cellular localization of PST PIP forms (assay for correct folding),CHO cells,formed large aggregates within the cytoplasm
B3,level of tyrosine phosphate on PSTPIP on cotransfection of PTP HSCF forms,[1],slightly more efficient dominant negative protein
B4,level of tyrosine phosphate on PSTPIP on cotransfection of PTP HSCF forms,[1],decreased level of tyrosine phosphate
B5,binding of in vitro translated PST PIP forms to GST fusion of C-terminal 149 amino acids of PTP HSCF,PTP HSCF,capable of interacting
same,cellular localization of PST PIP forms (assay for correct folding),CHO cells,predominantly co-localized with the cortical actin cytoskeleton
